Data taken from patent US20160304571.

B1: BAP1 (protein)
chain: MNKGWLELESDPGLFTLLVEDFGVKGVQVEEIYDLQSKCQGPVYGFIFLFKWIEERRSRRKVSTLVDDTSVIDDDIVNNMFFAHQLIPNSCATHALLSVLLNCSSVDLGPTLSRMKDFTKGFSPESKGYAIGNAPELAKAHNSHARPEPRHLPEKQNGLSAVRTMEAFHFVSYVPITGRLFELDGLKVYPIDHGPWGEDEEWTDKARRVIMERIGLATAGEPYHDIRFNLMAVVPDRRIKYEARLHVLKVNRQTVLEALQQLIRVTQPELIQTHKSQESQLPEESKSASNKSPLVLEANRAPAASEGNHTDGAEEAAGSCAQAPSHSPPNKPKLVVKPPGSSLNGVHPNPTPIVQRLPAFLDNHNYAKSPMQEEEDLAAGVGRSRVPVRPPQQYSDDEDDYEDDEEDDVQNTNSALRYKGKGTGKPGALSGSADGQLSVLQPNTINVLAEKLKESQKDLSIPLSIKTSSGAGSPAVAVPTHSQPSPTPSNESTDTASEIGSAFNSPLRSPIRSANPTRPSSPVTSHISKVLFGEDDSLLRVDCIRYNRAVRDLGPVISTGLLHLAEDGVLSPLALTEGGKGSSPSIRPIQGSQGSSSPVEKEVVEATDSREKTGMVRPGEPLSGEKYSPKELLALLKCVEAEIANYEACLKEEVEKRKKFKIDDQRRTHNYDEFICTFISMLAQEGMLANLVEQNISVRRRQGVSIGRLHKQRKPDRRKRSRPYKAKRQ
B2: USP21 (protein)
chain: SDDKMAHHTLLLGSGHVGLRNLGNTCFLNAVLQCLSSTRPLRDFCLRRDFRQEVPGGGRAQELTEAFADVIGALWHPDSCEAVNPTRFRAVFQKYVPSFSGYSQQDAQEFLKLLMERLHLEINRRGRRAPPILANGPVPSPPRRGGALLEEPELSDDDRANLMWKRYLEREDSKIVDLFVGQLKSCLKCQACGYRSTTFEVFCDLSLPIPKKGFAGGKVSLRDCFNLFTKEEELESENAPVCDRCRQKTRSTKKLTVQRFPRILVLHLNRFSASRGSIKKSSVGVDFPLQRLSLGDFASDKAGSPVYQLYALCNHSGSVHYGHYTALCRCQTGWHVYNDSRVSPVSENQVASSEGYVLFYQLMQEPPRCL
B3: A20 (protein)
chain: MAEQVLPQALYLSNMRKAVKIRERTPEDIFKPTNGIIHHFKTMHRYTLEMFRTCQFCPQFREIIHKALIDRNIQATLESQKKLNWCREVRKLVALKTNGDGNCLMHATSQYMWGVQDTDLVLRKALFSTLKETDTRNFKFRWQLESLKSQEFVETGLCYDTRNWNDEWDNLIKMASTDTPMARSGLQYNSLEEIHIFVLCNILRRPIIVISDKMLRSLESGSNFAPLKVGGIYLPLHWPAQECYRYPIVLGYDSHHFVPLVTLKDSGPEIRAVPLVNRDRGRFEDLKVHFLTDPENEMKEKLLKEYLMVIEIPVQGWDHGTTHLINAAKLDEANLPKEINLVDDYFELVQHEYKKWQENSEQGRRE
B4: ubiquitin C-terminal hydrolase-L3 (UCH-L3) (protein)
chain: MEGQRWLPLEANPEVTNQFLKQLGLHPNWQFVDVYGMDPELLSMVPRPVCAVLLLFPITEKYEVFRTEEEEKIKSQGQDVTSSVYFMKQTISNACGTIGLIHAIANNKDKMHFESGSTLKKFLEESVSMSPEERARYLENYDAIRVTHETSAHEGQTEAPSIDEKVDLHFIALVHVDGHLYELDGRKPFPINHGETSDETLLEDAIEVCKKFMERDPDELRFNAIALSAA
B5: CYLD (protein)
chain: GLEIMIGKKKGIQGHYNSCYLDSTLFCLFAFSSVLDTVLLRPKEKNDVEYYSETQELLRTEIVNPLRIYGYVCATKIMKLRKILEKVEAASGFTSEEKDPEEFLNILFHHILRVEPLLKIRSAGQKVQDCYFYQIFMEKNEKVGVPTIQQLLEWSFINSNLKFAEAPSCLIIQMPRFGKDFKLFKKIFPSLELNITDLLEDTPRQCRICGGLAMYECRECYDDPDISAGKIKQFCKTCNTQVHLHPKRLNHKYNPVSLPKDLPDWDWRHGCIPCQNMELFAVLCIETSHYVAFVKYGKDDSAWLFFDSMADRDGGQNGFNIPQVTPCPEVGEYLKMSLEDLHSLDSRRIQGCARRLLCDAYMCMYQSPTMSLYK
B6: USP5 (protein)
chain: MAELSEEALLSVLPTIRVPKAGDRVHKDECAFSFDTPESEGGLYICMNTFLGFGKQYVERHFNKTGQRVYLHLRRTRRPKEEDPATGTGDPPRKKPTRLAIGVEGGFDLSEEKFELDEDVKIVILPDYLEIARDGLGGLPDIVRDRVTSAVEALLSADSASRKQEVQAWDGEVRQVSKHAFSLKQLDNPARIPPCGWKCSKCDMRENLWLNLTDGSILCGRRYFDGSGGNNHAVEHYRETGYPLAVKLGTITPDGADVYSYDEDDMVLDPSLAEHLSHFGIDMLKMQKTDKTMTELEIDMNQRIGEWELIQESGVPLKPLFGPGYTGIRNLGNSCYLNSVVQVLFSIPDFQRKYVDKLEKIFQNAPTDPTQDFSTQVAKLGHGLLSGEYSKPVPESGDGERVPEQKEVQDGIAPRMFKALIGKGHPEFSTNRQQDAQEFFLHLINMVERNCRSSENPNEVFRFLVEEKIKCLATEKVKYTQRVDYIMQLPVPMDAALNKEELLEYEEKKRQAEEEKMALPELVRAQVPFSSCLEAYGAPEQVDDFWSTALQAKSVAVKTTRFASFPDYLVIQIKKFTFGLDWVPKKLDVSIEMPEELDISQLRGTGLQPGEEELPDIAPPLVTPDEPKGSLGFYGNEDEDSFCSPHFSSPTSPMLDESVIIQLVEMGFPMDACRKAVYYTGNSGAEAAMNWVMSHMDDPDFANPLILPGSSGPGSTSAAADPPPEDCVTTIVSMGFSRDQALKALRATNNSLERAVDWIFSHIDDLDAEAAMDISEGRSAADSISESVPVGPKVRDGPGKYQLFAFISHMGTSTMCGHYVCHIKKEGRWVIYNDQKVCASEKPPKDLGYIYFYQRVAS
B7: Cezanne (protein)
chain: PPSFSEGSGGSRTPEKGFSDREPTRPPRPILQRQDDIVQEKRLSRGISHASSSIVSLARSHVSSNGGGGGSNEHPLEMPICAFQLPDLTVYNEDFRSFIERDLIEQSMLVALEQAGRLNWWVSVDPTSQRLLPLATTGDGNCLLHAASLGMWGFHDRDLMLRKALYALMEKGVEKEALKRRWRWQQTQQNKESGLVYTEDEWQKEWNELIKLASSEPRMHLGTNGANCGGVESSEEPVYESLEEFHVFVLAHVLRRPIVVVADTMLRDSGGEAFAPIPFGGIYLPLEVPASQCHRSPLVLAYDQAHFSALVSMEQKENTKEQAVIPLTDSEYKLLPLHFAVDPGKGWEWGKDDSDNVRLASVILSLEVKLHLLHSYMNVKWIPLSSDAQAPLAQ

How the values were obtained:
[1] = molecular target: Lys6-linked diubiquitin, P0CG48
[2] = molecular target: Lys29-linked diubiquitin, P0CG48
[3] = molecular target: Lys63-linked diubiquitin (enzymatically assembled), P0CG48
Sequence of Lys63-linked diubiquitin (enzymatically assembled), P0CG48 (P0CG48 whole entry, looked up): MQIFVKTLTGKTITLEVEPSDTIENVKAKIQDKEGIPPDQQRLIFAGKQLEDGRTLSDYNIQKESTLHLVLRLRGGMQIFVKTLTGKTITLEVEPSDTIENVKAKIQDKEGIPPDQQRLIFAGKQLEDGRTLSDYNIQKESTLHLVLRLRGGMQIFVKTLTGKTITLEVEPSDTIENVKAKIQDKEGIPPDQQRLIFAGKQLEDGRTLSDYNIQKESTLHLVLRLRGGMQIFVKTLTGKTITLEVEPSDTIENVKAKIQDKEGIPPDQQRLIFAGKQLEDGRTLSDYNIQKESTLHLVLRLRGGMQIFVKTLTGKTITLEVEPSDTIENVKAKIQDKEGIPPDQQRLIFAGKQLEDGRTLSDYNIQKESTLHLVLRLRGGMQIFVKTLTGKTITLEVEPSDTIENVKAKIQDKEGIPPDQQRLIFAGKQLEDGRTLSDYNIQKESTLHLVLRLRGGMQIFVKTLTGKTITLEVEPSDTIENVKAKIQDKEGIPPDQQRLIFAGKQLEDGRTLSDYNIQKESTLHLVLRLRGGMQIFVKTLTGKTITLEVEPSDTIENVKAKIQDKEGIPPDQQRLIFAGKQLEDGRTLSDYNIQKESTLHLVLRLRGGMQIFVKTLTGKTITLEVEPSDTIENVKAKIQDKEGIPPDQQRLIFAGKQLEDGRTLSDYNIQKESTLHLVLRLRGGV

Sequence of Lys29-linked diubiquitin, P0CG48 (P0CG48 whole entry, looked up): as above
Sequence of Lys6-linked diubiquitin, P0CG48 (P0CG48 whole entry, looked up): as above

Row | Protein | cleavage in in vitro deubiquitinase assay (SDS-PAGE, silver stain) [1] | cleavage in in vitro deubiquitinase assay (SDS-PAGE, silver stain) [2] | cleavage in in vitro deubiquitinase assay (SDS-PAGE, silver stain) [3]
1 | B1 | failed to cleave | failed to cleave | 
2 | B2 | rapidly cleaves all chain types tested | rapidly cleaves all chain types tested | rapidly cleaves all chain types tested
3 | B3 | did not cleave Lys6-linked diubiquitin | also did not cleave Lys29 linkages | 
4 | B4 | failed to cleave | failed to cleave | 
5 | B5 | shows little or no activity against the Lys6 and Lys29 linkage | shows little or no activity against the Lys6 and Lys29 linkage | efficiently cleaves its preferred Lys63 linkage
6 | B6 | rapidly cleaves all chains types tested | rapidly cleaves all chains types tested | rapidly cleaves all chains types tested
7 | B7 | did not cleave Lys6-linked diubiquitin | also did not cleave Lys29 linkages | 
